Here are results for ten molecules from paper PMC3098719 (Molecular cell, 2008).

The target of data set [1] is MJ1130 (Kae1-Bud32 fusion of Methanococcus jannaschii) as used for the complex with Cgi121 (Methanococcus jannaschii) (UniProt Q58530). Put plainly: crystal structure.
Data set [2] addresses T1, Bud32 K365E (M. jannaschii) (Methanococcus jannaschii, UniProt Q58530 328-535, K365E).
T1 sequence (looked up): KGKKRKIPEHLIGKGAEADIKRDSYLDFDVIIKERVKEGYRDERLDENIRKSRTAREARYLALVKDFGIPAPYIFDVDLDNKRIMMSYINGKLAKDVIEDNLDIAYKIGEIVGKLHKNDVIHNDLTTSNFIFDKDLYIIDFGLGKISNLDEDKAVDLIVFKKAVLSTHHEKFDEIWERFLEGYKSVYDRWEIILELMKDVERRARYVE
Kind of data set: pull-down.

Data set [3] concerns the target T2, Bud32 R380E (M. jannaschii) (Methanococcus jannaschii, UniProt Q58530 328-535, R380E).
T2 sequence (looked up): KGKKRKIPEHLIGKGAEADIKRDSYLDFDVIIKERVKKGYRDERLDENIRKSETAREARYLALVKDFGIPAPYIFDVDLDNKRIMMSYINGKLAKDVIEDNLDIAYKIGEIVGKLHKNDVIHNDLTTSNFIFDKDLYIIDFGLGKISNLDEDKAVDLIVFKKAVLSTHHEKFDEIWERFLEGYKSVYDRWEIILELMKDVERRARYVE
Put plainly: pull-down.

For data set [4], the target named is T3, Bud32 V486Y (M. jannaschii) (Methanococcus jannaschii, UniProt Q58530 328-535, V486Y).
T3 sequence (looked up): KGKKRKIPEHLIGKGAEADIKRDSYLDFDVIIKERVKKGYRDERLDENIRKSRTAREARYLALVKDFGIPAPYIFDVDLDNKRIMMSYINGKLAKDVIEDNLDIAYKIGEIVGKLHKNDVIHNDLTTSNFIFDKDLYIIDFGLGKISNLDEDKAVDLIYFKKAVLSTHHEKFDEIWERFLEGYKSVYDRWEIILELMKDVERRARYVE
Kind of data set: pull-down.

Data set [5] has as its target T4, Bud32 K489E (M. jannaschii) (Methanococcus jannaschii, UniProt Q58530 328-535, K489E).
T4 sequence (looked up): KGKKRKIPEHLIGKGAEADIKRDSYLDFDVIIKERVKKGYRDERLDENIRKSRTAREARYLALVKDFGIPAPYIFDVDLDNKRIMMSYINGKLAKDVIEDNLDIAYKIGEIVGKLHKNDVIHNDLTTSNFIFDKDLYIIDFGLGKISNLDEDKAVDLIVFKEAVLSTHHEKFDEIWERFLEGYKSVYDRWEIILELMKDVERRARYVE
Kind of data set: pull-down.

Data set [6] addresses T5, Bud32 (residues 328-535 of Methanococcus jannaschii MJ1130), untagged (Methanococcus jannaschii, UniProt Q58530 328-535).
T5 sequence (looked up): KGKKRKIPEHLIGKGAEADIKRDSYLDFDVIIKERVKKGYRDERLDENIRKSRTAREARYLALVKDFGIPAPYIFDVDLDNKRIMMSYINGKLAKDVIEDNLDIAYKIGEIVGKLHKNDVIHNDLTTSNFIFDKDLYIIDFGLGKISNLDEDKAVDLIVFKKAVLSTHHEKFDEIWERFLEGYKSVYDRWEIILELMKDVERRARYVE
Put plainly: pull-down.

In data set [7] the target is T6, Kae1 (residues 1-328 of Methanococcus jannaschii MJ1130), untagged (Methanococcus jannaschii, UniProt Q58530 1-328).
T6 sequence (looked up): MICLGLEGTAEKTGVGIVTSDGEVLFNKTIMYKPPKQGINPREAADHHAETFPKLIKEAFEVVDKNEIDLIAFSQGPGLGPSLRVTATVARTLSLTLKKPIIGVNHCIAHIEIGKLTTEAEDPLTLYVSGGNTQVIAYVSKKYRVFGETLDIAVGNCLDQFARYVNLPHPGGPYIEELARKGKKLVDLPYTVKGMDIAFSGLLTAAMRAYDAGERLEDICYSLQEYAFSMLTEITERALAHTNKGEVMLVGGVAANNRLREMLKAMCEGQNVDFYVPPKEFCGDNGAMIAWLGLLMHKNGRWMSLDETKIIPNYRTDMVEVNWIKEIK
Put plainly: pull-down.

Data set [8] deals with T7, GST-Kae1 E233R (M. jannaschii) (Methanococcus jannaschii, UniProt Q58530 1-328, E233R).
T7 sequence (looked up): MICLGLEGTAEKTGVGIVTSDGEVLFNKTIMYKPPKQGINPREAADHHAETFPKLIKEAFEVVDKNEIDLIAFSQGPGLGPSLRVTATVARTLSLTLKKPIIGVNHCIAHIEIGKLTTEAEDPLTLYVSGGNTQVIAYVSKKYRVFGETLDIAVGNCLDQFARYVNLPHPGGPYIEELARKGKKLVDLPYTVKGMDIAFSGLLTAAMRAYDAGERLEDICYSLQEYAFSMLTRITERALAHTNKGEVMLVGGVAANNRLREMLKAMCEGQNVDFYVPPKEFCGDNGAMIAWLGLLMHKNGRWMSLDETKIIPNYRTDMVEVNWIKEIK
Put plainly: pull-down.

Data set [9] has as its target T8, GST-Kae1 E236K (M. jannaschii) (Methanococcus jannaschii, UniProt Q58530 1-328, E236K).
T8 sequence (looked up): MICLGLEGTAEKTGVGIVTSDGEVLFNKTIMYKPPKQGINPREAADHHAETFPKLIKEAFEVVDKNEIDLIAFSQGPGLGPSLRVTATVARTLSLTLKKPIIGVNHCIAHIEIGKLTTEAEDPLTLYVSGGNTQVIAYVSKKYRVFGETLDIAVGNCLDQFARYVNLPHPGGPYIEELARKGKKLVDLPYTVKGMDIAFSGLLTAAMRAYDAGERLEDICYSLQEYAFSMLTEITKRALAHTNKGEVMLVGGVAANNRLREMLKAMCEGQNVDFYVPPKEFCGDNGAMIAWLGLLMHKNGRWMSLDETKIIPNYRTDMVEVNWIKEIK
Put plainly: pull-down.

Data set [10] has as its target T9, GST-Kae1 (residues 1-328 of Methanococcus jannaschii MJ1130) (Methanococcus jannaschii, UniProt Q58530 1-328).
T9 sequence (looked up): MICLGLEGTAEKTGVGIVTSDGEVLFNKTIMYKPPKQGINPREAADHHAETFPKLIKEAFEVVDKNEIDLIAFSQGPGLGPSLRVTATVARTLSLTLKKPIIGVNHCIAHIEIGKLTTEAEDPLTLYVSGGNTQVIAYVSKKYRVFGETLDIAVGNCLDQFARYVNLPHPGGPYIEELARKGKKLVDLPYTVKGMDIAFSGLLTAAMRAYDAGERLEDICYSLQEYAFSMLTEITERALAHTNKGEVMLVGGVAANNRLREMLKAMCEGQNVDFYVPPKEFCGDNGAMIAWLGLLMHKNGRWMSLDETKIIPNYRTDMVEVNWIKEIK
Kind of data set: pull-down.

Data set [11] deals with the molecule itself. Kind of data set: SEC. In general terms: In gel filtration, larger molecules generally elute earlier.

B1: GST-Cgi121 (Methanococcus jannaschii MJ0187) (natural protein, UniProt Q57646 1-145, looked up)
chain: MIIRGIRGARINNEIFNLGLKFQILNADVVATKKHVLHAINQAKTKKPIAKSFWMEILVRASGQRQIHEAIKIIGAKDGNVCLICEDEETFRKIYELIGGEIDDSVLEINEDKERLIREIFKIRGFGNVVERVLEKIALIELKKE
In turn, B1 displayed a stoichiometry N (Cgi121 per MJ1130) in [1] of 1. The binding result in data set [2], in [3], in [4] and in data set [5] was “binds” throughout.

B2: GST-Cgi121 L134E (M. jannaschii) (natural protein, Methanococcus jannaschii, UniProt Q57646 1-145, looked up)
chain: MIIRGIRGARINNEIFNLGLKFQILNADVVATKKHVLHAINQAKTKKPIAKSFWMEILVRASGQRQIHEAIKIIGAKDGNVCLICEDEETFRKIYELIGGEIDDSVLEINEDKERLIREIFKIRGFGNVVERVEEKIALIELKKE
As to B2, the binding result in data set [6] is listed as “binds”.

B3: GST-Cgi121 A138R (M. jannaschii) (natural protein, Methanococcus jannaschii, UniProt Q57646 1-145, looked up)
chain: MIIRGIRGARINNEIFNLGLKFQILNADVVATKKHVLHAINQAKTKKPIAKSFWMEILVRASGQRQIHEAIKIIGAKDGNVCLICEDEETFRKIYELIGGEIDDSVLEINEDKERLIREIFKIRGFGNVVERVLEKIRLIELKKE
On to B3, for which the binding result in data set [6] is recorded as “binds”.

B4: GST-Cgi121 L139R (M. jannaschii) (natural protein, Methanococcus jannaschii, UniProt Q57646 1-145, looked up)
chain: MIIRGIRGARINNEIFNLGLKFQILNADVVATKKHVLHAINQAKTKKPIAKSFWMEILVRASGQRQIHEAIKIIGAKDGNVCLICEDEETFRKIYELIGGEIDDSVLEINEDKERLIREIFKIRGFGNVVERVLEKIARIELKKE
Regarding B4, the binding result in [6] was “binds”.

B5: GST-Pcc1 (Pyrococcus furiosus PF2011) (natural protein, UniProt Q8TZI1 1-82, looked up)
chain: MKAKRVQAKIEIEFPSEDVAKVVYEAVLYEHLSVPYRRSEIDFKLEGKKIILDIKATDSSALRGTVNSYLRWIKAAIDVIEV
Turning to B5, the binding result in data set [7] was “binds”.

B6: Pcc1 (Pyrococcus furiosus PF2011), untagged (natural protein, UniProt Q8TZI1 1-82, looked up)
chain: MKAKRVQAKIEIEFPSEDVAKVVYEAVLYEHLSVPYRRSEIDFKLEGKKIILDIKATDSSALRGTVNSYLRWIKAAIDVIEV
Take B6: the binding result in data set [8], in [9] and in [10] was “binds” in each case.

B7: Pcc1 A75Y/V79R (P. furiosus) (natural protein, Pyrococcus furiosus, UniProt Q8TZI1 1-82, looked up)
chain: MKAKRVQAKIEIEFPSEDVAKVVYEAVLYEHLSVPYRRSEIDFKLEGKKIILDIKATDSSALRGTVNSYLRWIKYAIDRIEV
By stoichiometry N is commonly meant a count of units in the complex or per binding partner. Consider B7, for which the “stoichiometry N” value in [11] worked out at 2.

B8: Pcc1 A75Y (P. furiosus) (natural protein, Pyrococcus furiosus, UniProt Q8TZI1 1-82, looked up)
chain: MKAKRVQAKIEIEFPSEDVAKVVYEAVLYEHLSVPYRRSEIDFKLEGKKIILDIKATDSSALRGTVNSYLRWIKYAIDVIEV
Regarding B8, in data set [11], the “stoichiometry N” value is 2.

B9: Pcc1 V79R (P. furiosus) (natural protein, Pyrococcus furiosus, UniProt Q8TZI1 1-82, looked up)
chain: MKAKRVQAKIEIEFPSEDVAKVVYEAVLYEHLSVPYRRSEIDFKLEGKKIILDIKATDSSALRGTVNSYLRWIKAAIDRIEV
Take B9: the “stoichiometry N” value in data set [11] amounted to 2.

B10: Pcc1 E30R (P. furiosus) (natural protein, Pyrococcus furiosus, UniProt Q8TZI1 1-82, looked up)
chain: MKAKRVQAKIEIEFPSEDVAKVVYEAVLYRHLSVPYRRSEIDFKLEGKKIILDIKATDSSALRGTVNSYLRWIKAAIDVIEV
Consider B10, for which the “stoichiometry N” value in data set [11] was found to be 2.
